Literature values in PMC3025320.

Experiments:
[1] = molecular target: C3d C3d (996-1303) (Homo sapiens) (UniProt P01024); test: ITC
C3d C3d (Homo sapiens) = C3d C3d (Homo sapiens) (UniProt P01024); test: ITC
C3d C3d (Homo sapiens), sequence (P01024 1002-1303): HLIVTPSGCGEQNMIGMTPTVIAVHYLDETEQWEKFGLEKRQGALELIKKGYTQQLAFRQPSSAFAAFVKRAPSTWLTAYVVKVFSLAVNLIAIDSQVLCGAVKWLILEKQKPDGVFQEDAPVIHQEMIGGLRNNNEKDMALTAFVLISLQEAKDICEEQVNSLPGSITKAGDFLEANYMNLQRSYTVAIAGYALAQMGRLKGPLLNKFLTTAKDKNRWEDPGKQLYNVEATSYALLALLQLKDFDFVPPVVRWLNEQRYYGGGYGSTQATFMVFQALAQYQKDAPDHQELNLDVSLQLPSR

C3d C3d (996-1303) (Homo sapiens), sequence (P01024 996-1303): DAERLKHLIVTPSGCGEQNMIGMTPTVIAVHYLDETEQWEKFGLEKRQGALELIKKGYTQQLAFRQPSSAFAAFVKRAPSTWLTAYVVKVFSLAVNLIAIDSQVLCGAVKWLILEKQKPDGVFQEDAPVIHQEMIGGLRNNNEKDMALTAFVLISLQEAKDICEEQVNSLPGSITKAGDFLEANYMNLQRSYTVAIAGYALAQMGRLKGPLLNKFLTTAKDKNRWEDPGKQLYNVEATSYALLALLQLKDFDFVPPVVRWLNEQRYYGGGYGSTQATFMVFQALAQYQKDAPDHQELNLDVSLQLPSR
Efb-C Efb-C, sequence (P68799 101-165): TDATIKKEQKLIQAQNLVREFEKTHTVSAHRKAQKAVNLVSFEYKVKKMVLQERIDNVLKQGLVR

Substance | Kd [1] | Kd (C3d C3d (Homo sapiens))
Sbi-III–IV domains III-IV (from UniProt A7X659) | 0.4 µM | –
Sbi-III-IV domains III-IV (from UniProt A7X659) | – | 0.4 µM
Sbi-IV domain IV (from UniProt A7X659) | 0.36 µM | 0.36 µM
Efb-C Efb-C (from UniProt P68799) | – | 0.002 µM
